Values of other authors in publication PMC6307816.
pKd: −log10 of the molar value.

Molecular target: EGFR (Homo sapiens) (UniProt P00533)

Q: With EGF (from UniProt P01133) as the substance, how does the pKd read?
A: > 9.70
